This is an account of results in PMC12350838.

A word on the stoichiometry N: it is the number of molecules, sites or subunits per partner or assembly.

Assay [1] concerns the target BoDV-1 L-P complex (one L-protein with a tetramer of P-protein) (Borna disease virus 1 (BoDV-1)). As to the kind of experiment: cryo-EM structure; Sample 2, reaction conditions: L-P complex with 25 μM 23mer template RNA, 20 μM triphosphorylated 6mer primer, 1 mM SAM, 1 mM each NTP, 1 h on ice, diluted to 0.4 mg/ml; single particle analysis, re-extraction in a larger box and 2D classification.

For assay [2] the target is unchanged. Put plainly: cryo-EM structure; Sample 1, RNA-free: co-expressed and co-purified L-P complex used immediately after elution, 0.33 mg/ml on grids; single particle analysis with 2D and 3D classification.
Assay [3] has as its target Borna disease virus 1 (BoDV-1) large protein (L-protein) (Borna disease virus 1 (BoDV-1)). The assay is described as above.
For assay [4], the target named is Borna disease virus 1 (BoDV-1) phosphoprotein (P-protein) (Borna disease virus 1 (BoDV-1)). Described as above.

In assay [1], “BoDV-1 L-P complex (one L-protein with a tetramer of P-protein)” displayed a percent of particles as dimers of 6% and a stoichiometry N of 2. In assay [2], the percent of particles as tetramers amounted to 0.2% and the stoichiometry N amounted to 4.
Consider “Borna disease virus 1 (BoDV-1) phosphoprotein (P-protein) (natural protein)”, for which, in assay [3], the stoichiometry N (P-protein chains per L-protein) turned out to be 4. The same substance gave a stoichiometry N in assay [4] of 4.
